Experimental data as given in patent US8815528B2, “Methods and systems for detecting MHC class I binding peptides” (Beckman Coulter, Inc., priority 2002, dated 2014).

What was measured:
[1] = target: HLA-A2m monomer in ternary complex with binding peptide Mart-1 26-35L (human); test: fluorimetric plate assay, avidin-coated plate, 40 min at room temperature; 1 µg/ml antibody, 0.5 µg/ml monomer
[2] = target: HLA-A2m monomer in ternary complex with binding peptide Mart-1 26-35L (human); test: fluorimetric plate assay, avidin-coated plate, 40 min at room temperature; 0.5 µg/ml antibody, 0.5 µg/ml monomer
[3] = target: STREPTACTIN® (mutated streptavidin molecule) (Streptomyces avidinii, UniProt P22629, E68V/S69T/V71R); conditions: biotin-binding site of STREPTACTIN; read-out: binding affinity (Kd); cited from earlier work
Sequence of STREPTACTIN® (mutated streptavidin molecule) (P22629 38-163 E68V/S69T/V71R): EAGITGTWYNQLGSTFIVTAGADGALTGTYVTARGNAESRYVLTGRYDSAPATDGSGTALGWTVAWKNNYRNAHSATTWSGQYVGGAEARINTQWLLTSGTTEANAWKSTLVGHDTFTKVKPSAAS

Fluorescence units (FU) [1] [FU] | Fluorescence units (FU) [2] [FU] | Substance | Kd [3] [nM]
600 | 300 | Anti-HLA-class I monoclonal antibody conjugated to FITC (clone: B9.12.1) | 
 |  | short peptide sequence binding the biotin-binding site of a mutated streptavidin molecule (STREPTACTIN) [streptagII] | ~1000
